Changes are numbered by the printed parent chain. Blank lines part the entries; values can stand above or below the binder they belong to.
Biological target: T1, FcγRIIIaV (human, UniProt P08637 17-208)
T1 construct: extracellular domain
Assay: SPR (Biacore), antibody captured, FcγR as analyte, 1:1 Langmuir fit

T1 sequence (P08637 other isoform, or with tags, fused parts or gaps): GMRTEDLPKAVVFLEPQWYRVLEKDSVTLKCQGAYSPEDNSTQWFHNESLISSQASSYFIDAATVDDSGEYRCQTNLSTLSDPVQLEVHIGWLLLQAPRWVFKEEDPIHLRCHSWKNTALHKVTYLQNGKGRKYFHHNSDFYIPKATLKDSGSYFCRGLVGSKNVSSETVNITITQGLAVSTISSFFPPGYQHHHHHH

B2: Kn125-L2a-9 (antibody, human IgG1, kappa)
heavy 1: QDQLVQSGAEVKKPGASVKVSCKASGFNIKDTYIQWVRQAPGQGLEWMGRIDPLRKQTKYREKFEGRVTITADTSTNTAYMELSSLRSEDTAVYYCVRSGREFDYWGQGTLVTVSSASTKGPSVFPLAPSSKSTSGGTAALGCLVKDYFPEPVTVSWNSGALTSGVHTFPAVLQSSGLYSLSSVVTVPSSSLGTQTYICNVNHKPSNTKVDKKVEPKSCDKTHTCPPCPAPELLGGPSVFLFPPKPKDTLMISRTPEVTCVVVDVSHEEPEVKFNWYVDGVEVHNAKTKPREEQYNSTYRVVSVLTVLHQDWLNGKEYKCKVSNDALPMPIEETISKAKGQPREPQVYTLPPSRCELTKNQVSLSCAVKGFYPSDIAVEWESNGQPENNYKTTPPVLDSDGSFFLVSKLTVDKSRWQQGNVFSCSVMHEALHNHYTQKSLSLSP
heavy 2: QDQLVQSGAEVKKPGASVKVSCKASGFNIKDTYIQWVRQAPGQGLEWMGRIDPLRKQTKYREKFEGRVTITADTSTNTAYMELSSLRSEDTAVYYCVRSGREFDYWGQGTLVTVSSASTKGPSVFPLAPSSKSTSGGTAALGCLVKDYFPEPVTVSWNSGALTSGVHTFPAVLQSSGLYSLSSVVTVPSSSLGTQTYICNVNHKPSNTKVDKKVEPKSCDKTHTCPPCPAPEYQWGPMVFLFPPKPKDTLMISRTPEVTCVVVDVSDEGGSGGSGGSEPEVKFNWYVDGVEVHNAKTKPREEQYNATYRVVSVLTVLHQDWLNGKEYKCKVSNKALPAPIEKTISKAKGQPREPQVCTLPPSRDELTKNQVSLWCLVKGFYPSDIAVEWESNGQPENNYKTTPPVLDSDGSFFLYSKLTVDKSRWQQGNVFSCSVMHEALHNHYTQKSLSLSP
light: DIQMTQSPSSLSASVGDRVTITCRASQDIHKYIAWYQQKPGQAPRLLIQYTSTLQPGVPSRFSGSGSGTDYTFTISSLQPEDIATYYCLQYEQLRTFGGGTKVEIKRTVAAPSVFIFPPSDEQLKSGTASVVCLLNNFYPREAKVQWKVDNALQSGNSQESVTEQDSKDSTYSLSSTLTLSKADYEKHKVYACEVTHQGLSSPVTKSFNRGEC
notes: heterodimerized anti-EREG antibody: altered H240-Kn125 chain (Gly/Ser peptide in loop) with H240-Hl076 and L73-k0
Kd: 11 nM

B3: Kn125-L2a-3 (antibody, human IgG1, kappa)
heavy 1: B2 heavy 1
heavy 2: QDQLVQSGAEVKKPGASVKVSCKASGFNIKDTYIQWVRQAPGQGLEWMGRIDPLRKQTKYREKFEGRVTITADTSTNTAYMELSSLRSEDTAVYYCVRSGREFDYWGQGTLVTVSSASTKGPSVFPLAPSSKSTSGGTAALGCLVKDYFPEPVTVSWNSGALTSGVHTFPAVLQSSGLYSLSSVVTVPSSSLGTQTYICNVNHKPSNTKVDKKVEPKSCDKTHTCPPCPAPEYQWGPMVFLFPPKPKDTLMISRTPEVTCVVVDVSDEGGSEPEVKFNWYVDGVEVHNAKTKPREEQYNATYRVVSVLTVLHQDWLNGKEYKCKVSNKALPAPIEKTISKAKGQPREPQVCTLPPSRDELTKNQVSLWCLVKGFYPSDIAVEWESNGQPENNYKTTPPVLDSDGSFFLYSKLTVDKSRWQQGNVFSCSVMHEALHNHYTQKSLSLSP
light: B2 light
notes: as for B2
Kd: 10 nM

B4: Kn125-L2a-6 (antibody, human IgG1, kappa)
heavy 1: B2 heavy 1
heavy 2: QDQLVQSGAEVKKPGASVKVSCKASGFNIKDTYIQWVRQAPGQGLEWMGRIDPLRKQTKYREKFEGRVTITADTSTNTAYMELSSLRSEDTAVYYCVRSGREFDYWGQGTLVTVSSASTKGPSVFPLAPSSKSTSGGTAALGCLVKDYFPEPVTVSWNSGALTSGVHTFPAVLQSSGLYSLSSVVTVPSSSLGTQTYICNVNHKPSNTKVDKKVEPKSCDKTHTCPPCPAPEYQWGPMVFLFPPKPKDTLMISRTPEVTCVVVDVSDEGGSGGSEPEVKFNWYVDGVEVHNAKTKPREEQYNATYRVVSVLTVLHQDWLNGKEYKCKVSNKALPAPIEKTISKAKGQPREPQVCTLPPSRDELTKNQVSLWCLVKGFYPSDIAVEWESNGQPENNYKTTPPVLDSDGSFFLYSKLTVDKSRWQQGNVFSCSVMHEALHNHYTQKSLSLSP
light: B2 light
notes: as for B2
Kd: 9.2 nM

B6: Kn125-L4-GS11 (antibody, human IgG1, kappa)
heavy 1: B2 heavy 1
heavy 2: QDQLVQSGAEVKKPGASVKVSCKASGFNIKDTYIQWVRQAPGQGLEWMGRIDPLRKQTKYREKFEGRVTITADTSTNTAYMELSSLRSEDTAVYYCVRSGREFDYWGQGTLVTVSSASTKGPSVFPLAPSSKSTSGGTAALGCLVKDYFPEPVTVSWNSGALTSGVHTFPAVLQSSGLYSLSSVVTVPSSSLGTQTYICNVNHKPSNTKVDKKVEPKSCDKTHTCPPCPAPEYQWGPMVFLFPPKPKDTLMISRTPEVTCVVVDVSDEEPEVKFNWYVDGVEVHNAKTKPREEQYNATYRVVSVLTVLHQDWLNGKEYKCKVSNGGSGGGSGGGSPIEKTISKAKGQPREPQVCTLPPSRDELTKNQVSLWCLVKGFYPSDIAVEWESNGQPENNYKTTPPVLDSDGSFFLYSKLTVDKSRWQQGNVFSCSVMHEALHNHYTQKSLSLSP
light: B2 light
notes: as for B2
Kd: 1.5 nM

B9: Kn125-L4-6 (antibody, human IgG1, kappa)
heavy 1: B2 heavy 1
heavy 2: B6 heavy 2 with G325K, S327G, G328S, G332A, G333L, G334P, S335A
light: B2 light
notes: as for B2
Kd: 1.7 nM

More lines, in order of falling Kd, values ahead:

Kd: 7.8 nM
B10: Kn125-L2b-3 (antibody, human IgG1, kappa)
heavy 1: B2 heavy 1
heavy 2: B3 heavy 2 with G269E, S271G, E272S
light: B2 light
notes: as for B2

Kd: 7 nM
B8: Kn125-L2b-9 (antibody, human IgG1, kappa)
heavy 1: B2 heavy 1
heavy 2: B2 heavy 2 with G269E, S271G, G272S, S274G, G275S, S277G, E278S
light: B2 light
notes: as for B2

Kd: 6.9 nM
B5: Kn125-L4-3 (antibody, human IgG1, kappa)
heavy 1: B2 heavy 1
heavy 2: QDQLVQSGAEVKKPGASVKVSCKASGFNIKDTYIQWVRQAPGQGLEWMGRIDPLRKQTKYREKFEGRVTITADTSTNTAYMELSSLRSEDTAVYYCVRSGREFDYWGQGTLVTVSSASTKGPSVFPLAPSSKSTSGGTAALGCLVKDYFPEPVTVSWNSGALTSGVHTFPAVLQSSGLYSLSSVVTVPSSSLGTQTYICNVNHKPSNTKVDKKVEPKSCDKTHTCPPCPAPEYQWGPMVFLFPPKPKDTLMISRTPEVTCVVVDVSDEEPEVKFNWYVDGVEVHNAKTKPREEQYNATYRVVSVLTVLHQDWLNGKEYKCKVSNKGGSALPAPIEKTISKAKGQPREPQVCTLPPSRDELTKNQVSLWCLVKGFYPSDIAVEWESNGQPENNYKTTPPVLDSDGSFFLYSKLTVDKSRWQQGNVFSCSVMHEALHNHYTQKSLSLSP
light: B2 light
notes: as for B2

Kd: 6.3 nM
B7: Kn125-L2b-6 (antibody, human IgG1, kappa)
heavy 1: B2 heavy 1
heavy 2: B4 heavy 2 with G269E, S271G, G272S, S274G, E275S
light: B2 light
notes: as for B2

Kd: 2 nM
B1: Kn125-L4-GS7 (antibody, human IgG1, kappa)
heavy 1: B2 heavy 1
heavy 2: QDQLVQSGAEVKKPGASVKVSCKASGFNIKDTYIQWVRQAPGQGLEWMGRIDPLRKQTKYREKFEGRVTITADTSTNTAYMELSSLRSEDTAVYYCVRSGREFDYWGQGTLVTVSSASTKGPSVFPLAPSSKSTSGGTAALGCLVKDYFPEPVTVSWNSGALTSGVHTFPAVLQSSGLYSLSSVVTVPSSSLGTQTYICNVNHKPSNTKVDKKVEPKSCDKTHTCPPCPAPEYQWGPMVFLFPPKPKDTLMISRTPEVTCVVVDVSDEEPEVKFNWYVDGVEVHNAKTKPREEQYNATYRVVSVLTVLHQDWLNGKEYKCKVSNGGSGGGSPIEKTISKAKGQPREPQVCTLPPSRDELTKNQVSLWCLVKGFYPSDIAVEWESNGQPENNYKTTPPVLDSDGSFFLYSKLTVDKSRWQQGNVFSCSVMHEALHNHYTQKSLSLSP
light: B2 light
notes: as for B2

— patent US20260167699A1 (Chugai, published 2026)
